From patent publication US20070054344

Tests used:
[1] = system: T1, N-terminal-valine fructosylated peptide having an amino acid sequence represented by SEQ ID NO: 2
T1 sequence: VHL

f-VHLTPE = system: T2, f-VHLTPE
T2 sequence: VHLTPE

f-VHLTP = system: T3, f-VHLTP
T3 sequence: VHLTP

f-VHLT = system: T4, f-VHLT
T4 sequence: VHLT

[2] = system: T5, fructosyl valyl histidine
T5 sequence: VH

Q: “defructosylation enzyme originating from a plant belonging to the family Zingiberaceae (Zingiber officinale rhizome)” was tested. Which Absorbance at 700 nm (mAbs), colour development of DA-64 (hydrogen peroxide produced) [1] did it give?
A: Its Absorbance at 700 nm (mAbs), colour development of DA-64 (hydrogen peroxide produced) is 570 mAbs.

Q: What about the “capillary electrophoresis peak area after 16 hours of reaction at 37° C. (defructosylation)” value [1] of the same substance?
A: The value was “the peak attributed to f-VHL does not exist and the peak attributed to VHL is increased (area: 32 mABU×sec)”.

Q: What about the “enzyme activity with the peptide as a substrate” value (“enzyme activity with the peptide” for short) [1] of the same substance?
A: Its value is “the enzyme is effective on fructosyl valine and at least fructosyl peptides having amino acid sequences represented by SEQ ID NOs: 1 to 5”.

Q: What about the Absorbance at 700 nm (mAbs), colour development of DA-64 (hydrogen peroxide produced) (f-VHLTPE) of the same substance?
A: Its Absorbance at 700 nm (mAbs), colour development of DA-64 (hydrogen peroxide produced) is 223 mAbs.

Q: What about the “enzyme activity with the peptide” value (f-VHLTPE) of the same substance?
A: The value was “the enzyme is effective on fructosyl valine and at least fructosyl peptides having amino acid sequences represented by SEQ ID NOs: 1 to 5”.

Q: What about the Absorbance at 700 nm (mAbs), colour development of DA-64 (hydrogen peroxide produced) (f-VHLTP) of the same substance?
A: The Absorbance at 700 nm (mAbs), colour development of DA-64 (hydrogen peroxide produced) was 198 mAbs.

Q: And the “enzyme activity with the peptide” value (f-VHLTP)?
A: The value was “the enzyme is effective on fructosyl valine and at least fructosyl peptides having amino acid sequences represented by SEQ ID NOs: 1 to 5”.

Q: And the Absorbance at 700 nm (mAbs), colour development of DA-64 (hydrogen peroxide produced) (f-VHLT)?
A: Its Absorbance at 700 nm (mAbs), colour development of DA-64 (hydrogen peroxide produced) is 558 mAbs.

Q: And the “enzyme activity with the peptide” value (f-VHLT)?
A: The value was “the enzyme is effective on fructosyl valine and at least fructosyl peptides having amino acid sequences represented by SEQ ID NOs: 1 to 5”.

Q: What about the Absorbance at 700 nm (mAbs), colour development of DA-64 (hydrogen peroxide produced) [2] of the same substance?
A: The Absorbance at 700 nm (mAbs), colour development of DA-64 (hydrogen peroxide produced) was 735 mAbs.

Q: What about the “Michaelis constant (Km), Lineweaver-Burk's plots of enzyme activity (glucosone production)” value [2] of the same substance?
A: Its value is “the Km value of the enzyme for fructosyl valyl histidine: 1.2 mM”.

Q: And the “absorbance at 550 nm (glucosone produced, glucose oxidase/peroxidase colour system)” value [2]?
A: Its value is “The absorbance was found to increase in accordance with the increase in concentration of fructosyl valyl histidine”.

Q: And the “enzyme activity with the peptide” value [2]?
A: Its value is “the enzyme is effective on fructosyl valine and at least fructosyl peptides having amino acid sequences represented by SEQ ID NOs: 1 to 5”.
